Test results published in article PMC3461317 (Biochemistry, 2010).
Positions count from the first letter of the chain named. Names may count otherwise.

B1: FlK-F36A (enzyme, Streptomyces cattleya)
chain: MKDGMRVGERFTHDFVVPPHKTVRHLYPESPEFAEAPEVFATGFMVGLMEWACVRAMAPYLEPGEGSLGTAICVTHTAATPPGLTVTVTAELRSVEGRRLSWRVSAHDGVDEIGSGTHERAVIHLEKFNAKVRQKTPAG
B2: FlK-E50Q (enzyme, Streptomyces cattleya)
chain: B1 chain with A36F, E50Q

How the values were obtained:
[1] = tested on: CC(C)(COP(=O)(O)OP(=O)(O)OC[C@H]1O[C@@H](n2cnc3c(N)ncnc32)[C@H](O)[C@@H]1OP(=O)(O)O)[C@@H](O)C(=O)NCCC(=O)NCCSC(=O)CF; test: purified protein; format: biochemical, Streptantibioticus cattleyicolor; conditions: 100 mM Tris-HCl pH 7.6, 25 °C, 0.5 mM DTNB
[2] = tested on: CC(=O)SCCNC(=O)CCNC(=O)[C@H](O)C(C)(C)COP(=O)(O)OP(=O)(O)OC[C@H]1O[C@@H](n2cnc3c(N)ncnc32)[C@H](O)[C@@H]1OP(=O)(O)O; test: purified protein; format: biochemical, Streptantibioticus cattleyicolor; conditions: 100 mM Tris-HCl pH 7.6, 25 °C, 0.5 mM DTNB
[3] = biological target: the molecule itself; test: crystal structure
[4] = biological target: the molecule itself; test: SEC

| Molecule | Km [1] | kcat [1] [s⁻¹] | kcat/Km [1] [M⁻¹ s⁻¹] | Km [2] | kcat [2] [s⁻¹] | kcat/Km [2] [M⁻¹ s⁻¹] | binding result [3] | stoichiometry N [4] |
| --- | --- | --- | --- | --- | --- | --- | --- | --- |
| FlK (Streptantibioticus cattleyicolor) | 8 ± 1 µM | 390 ± 20 | 5e+07 ± 1e+07 | (2.1 ± 0.5) × 10^3 μM | 0.06 ± 0.01 | 30 ± 10 |  |  |
| FlK (Streptantibioticus cattleyicolor; F33A) | (1.5 ± 0.4) × 10^3 μM | 27 ± 4 | 18000 ± 5000 |  |  |  |  |  |
| FlK (Streptantibioticus cattleyicolor; F36A) | (7.1 ± 0.8) × 10^2 μM | 270 ± 20 | 370000 ± 50000 |  |  |  |  |  |
| FlK (Streptantibioticus cattleyicolor; H76A) | (2.0 ± 0.7) × 10^1 μM | 0.003 ± 0.0003 | 150 ± 50 |  |  |  |  |  |
| FlK (Streptantibioticus cattleyicolor; L26A) | (1.2 ± 0.2) × 10^2 μM | 6.7 ± 0.1 | 57000 ± 8000 |  |  |  |  |  |
| FlK (Streptantibioticus cattleyicolor; T42A) | (1.1 ± 0.4) × 10^2 μM | 0.45 ± 0.09 | 4000 ± 2000 |  |  |  |  |  |
| FlK (Streptantibioticus cattleyicolor; T42C) | (3.6 ± 1) × 10^2 μM | 11 ± 2 | 30000 ± 10000 |  |  |  |  |  |
| FlK (Streptantibioticus cattleyicolor; T42S) | (6 ± 2) × 10^1 μM | 19 ± 4 | 300000 ± 100000 | (6.1 ± 0.9) × 10^1 μM | 0.01 ± 0.001 | 160 ± 30 |  |  |
| FlK (Streptantibioticus cattleyicolor; V23A) | (3.0 ± 1.5) × 10^2 μM | 150 ± 30 | 500000 ± 300000 |  |  |  |  |  |
| B1 |  |  |  |  |  |  | binds |  |
| B2 |  |  |  |  |  |  |  | 2 |
